B1: Interferon regulatory factor 3 (Homo sapiens), Q14653 (parent)
chain: MGTPKPRILPWLVSQLDLGQLEGVAWVNKSRTRFRIPWKHGLRQDAQQEDFGIFQAWAEATGAYVPGRDKPDLPTWKRNFRSALNRKEGLRLAEDRSKDPHDPHKIYEFVNSGVGDFSQPDTSPDTNGGGSTSDTQEDILDELLGNMVLAPLPDPGPPSLAVAPEPCPQPLRSPSLDNPTPFPNLGPSENPLKRLLVPGEEWEFEVTAFYRGRQVFQQTISCPEGLRLVGSEVGDRTLPGWPVTLPDPGMSLTDRGVMSYVRHVLSCLGGGLALWRAGQWLWAQRLGHCHTYWAVSEELLPNSGHGPDGEVPKDKEGGVFDLGPFIVDLITFTEGSGRSPRYALWFCVGESWPQDQPWTKRLVMVKVVPTCLRALVEMARVGGASSLENTVDLHISNSHPLSLTSDQYKAYLQDLVEGMDFQGPGES

Variants of: B1
Settings: with cbp_human CREBBP

effect of a mutation on the interaction | Variant
disrupting interaction | MGTPKPRILPWLVSQLDLGQLEGVAWVNKSRTRFRIPWKHGLRQDAQQEDFGIFQAWAEATGAYVPGRDKPDLPTWKRNFRSALNRKEGLRLAEDRSKDPHDPHKIYEFVNSGVGDFSQPDTSPDTNGGGSTSDTQEDILDELLGNMVLAPLPDPGPPSLAVAPEPCPQPLRSPSLDNPTPFPNLGPSENPLKRLLVPGEEWEFEVTAFYRGRQVFQQTISCPEGLRLVGSEVGDRTLPGWPVTLPDPGMSLTDRGVMSYVRHVLSCLGGGLALWRAGQWLWAQRLGHCHTYWAVSEELLPNSGHGPDGEVPKDKEGGVFDAGAFAADAATFTEGSGRSPRYALWFCVGESWPQDQPWTKRLVMVKVVPTCLRALVEMARVGGASSLENTVDLHISNSHPLSLTSDQYKAYLQDLVEGMDFQGPGES [L322A;P324A;I326A;V327A;L329A;I330A]
disrupting interaction | MGTPKPRILPWLVSQLDLGQLEGVAWVNKSRTRFRIPWKHGLRQDAQQEDFGIFQAWAEATGAYVPGRDKPDLPTWKRNFRSALNRKEGLRLAEDRSKDPHDPHKIYEFVNSGVGDFSQPDTSPDTNGGGSTSDTQEDILDELLGNMVLAPLPDPGPPSLAVAPEPCPQPLRSPSLDNPTPFPNLGPSENPLKRLLVPGEEWEFEVTAFYRGRQVFQQTIACPEGLRLVGSEVGDRTLPGWPVTLPDPGMSLTDRGVMSYVRHVLSCLGGGLALWRAGQWLWAQRLGHCHTYWAVSEELLPNSGHGPDGEVPKDKEGGVFDLGPFIVDLITFTEGSGRSPRYALWFCVGESWPQDQPWTKRLVMVKVVPTCLRALVEMARVGGASSLENTVDLHISNSHPLSLTSDQYKAYLQDLVEGMDFQGPGES [S221A]
disrupting interaction | MGTPKPRILPWLVSQLDLGQLEGVAWVNKSRTRFRIPWKHGLRQDAQQEDFGIFQAWAEATGAYVPGRDKPDLPTWKRNFRSALNRKEGLRLAEDRSKDPHDPHKIYEFVNSGVGDFSQPDTSPDTNGGGSTSDTQEDILDELLGNMVLAPLPDPGPPSLAVAPEPCPQPLRSPSLDNPTPFPNLGPSENPLKRLLVPGEEWEFEVTAFYRGRQVFQQTISCPEGLRLVGSEVGDRTLPGWPVTLPDPGMSLTDRGVMSYVRHVLSCLGGGLALWRAGQWLWAQRLGHCHTYWAVSEELLPNSGHGPDGEVPKDKEGGVFDLGPFIVDLITFTEGSGRSPRYALWFCVGESWPQDQPWTKRLVMVKVVPTALRAAVEAARVGGASSLENTVDLHISNSHPLSLTSDQYKAYLQDLVEGMDFQGPGES [C371A;L375A;M378A]
disrupting interaction | MGTPKPRILPWLVSQLDLGQLEGVAWVNKSRTRFRIPWKHGLRQDAQQEDFGIFQAWAEATGAYVPGRDKPDLPTWKRNFRSALNRKEGLRLAEDRSKDPHDPHKIYEFVNSGVGDFSQPDTSPDTNGGGSTSDTQEDILDELLGNMVLAPLPDPGPPSLAVAPEPCPQPLRSPSLDNPTPFPNLGPSENPLKRLLVPGEAWAFEVTAFYRGRQVFQQTISCPEGLRLVGSEVGDRTLPGWPVTLPDPGMSLTDRGVMSYVRHVLSCLGGGLALWRAGQWLWAQRLGHCHTYWAVSEELLPNSGHGPDGEVPKDKEGGVFDLGPFIVDLITFTEGSGRSPRYALWFCVGESWPQDQPWTKRLVMVKVVPTCLRALVEMARVGGASSLENTVDLHISNSHPLSLTSDQYKAYLQDLVEGMDFQGPGES [E201A;E203A]

From IntAct's records for PubMed 16154084
